Series [1] concerns the molecule itself. Description: circular dichroism, concentration series; monomer to dimer; CD signal at 222 nm at varying protein concentrations, 20 °C, 20 mM potassium phosphate pH 8.0, 150 mM NaF, fitted with a two-state association model. In general terms: CD spectra are sensitive to the conformation of chiral molecules.
Series [2] deals with the molecule itself. Description: high-speed atomic force microscopy (PORT-HS-AFM); homodimer with homodimer (and higher oligomers, rings) adsorbed on a mica surface; 20 mM Tris-HCl, 150 mM KCl, pH 7.4, 6-10 °C; ~120 nM in solution (~14 nM pre-incubated on mica for ring opening and closing); effective surface constants, Kd from a fit of a coagulation-fragmentation model.

B1: Chlamydomonas reinhardtii SAS-6[NL] (CrSAS-6[NL], amino acids 1-503) (domain or fragment, UniProt A9CQL4 1-503, looked up)
chain: MPLLLDDGDPKAQTGFDLSTATTLFWRPVPVHVKQQDREDVLEELTFRILTGVAKQNHNLRILRIHISSDSDLFFLHTLEVSEEDFQSLKNDQGILVDFASFPGKIISLLEKCILAQPGDSPRFQAVLTIRGGESVFKIVEINDFKQLPHITLAFRPGNDSVVKQFLAFRLSEVKGTCHDLSDDLSRTRDDRDSMVAQLAQCRQQLAQLREQYDKHLLEVQAQAKTQQASAHEERIREKSQLKDQFEKERGEMEGRYRDQIAALNTRLGELDTENRKLREVKYELDTKVSELSHKLGSSEGSNRSLEEETARLRSLNQQLSSSKHELEIQLNEAKAKVLALDEKAQSQGDVIEQQRGRLRDMEAALRQTEQRCADLRDTLASAEGRAKEAQAEVLKGNQAIEKLTNDLRLAKEKTKRKAAIILRQEEELQEREQSLANATRDVGVLGQQAESLRKDVASLHSENDSLRSKLEDSKQQLQSNEQMIRWLNQQVTEAQLHASGAT
notes: SAS-6 of Chlamydomonas reinhardtii, amino acids 1-503: globular N-terminal head domain and the coiled-coil (spokes), without the unstructured C-terminal moiety; Forms a homodimer through its coiled coil (monomer-dimer Kd measured here); source: E. coli BL21(DE3), purified (HisTrap Ni2+-Sepharose, PreScission cleavage, reverse HisTrap, SEC Superdex 200)
With B1, the equilibrium dissociation constant (Kd) (in general, the free concentration of one partner at which half of the binding sites on the other are occupied at equilibrium, for simple one-to-one binding) in series [1] is ~20 nM. Also, in series [2], the stoichiometry N (in general, the number of molecules, sites or subunits per partner or assembly) was 7 to 10 homodimers.

(Values after publication PMC8548535, “Kinetic and structural roles for the surface in guiding SAS-6 self-assembly to direct centriole architecture” (Nature Communications, 2021).)
